Paper PMC12802937 (Nucleic Acids Research, 2026)

Tests used:
Assay in all cases: SPR; Lge1-CT immobilised on a CM5 chip, Bre1-LR flown over; Biacore 8K, 25°C, 20 mM HEPES (pH 7.5), 200 mM sodium chloride, 0.02% Tween 20
Settings in all cases: both partners purified
[1] = target: T1, Bre1-LR (Bre1 residues 227–700, LBD and RING domains), 6× histidine tag (budding yeast, UniProt Q07457 227-700)
T1 construct: two Bre1 polypeptides form the dimeric coiled-coils of the LBD in the crystal structure; also called WT; source: E. coli BL21 Rosetta (DE3), purified (Ni-NTA, heparin, gel filtration)
T1 sequence (looked up): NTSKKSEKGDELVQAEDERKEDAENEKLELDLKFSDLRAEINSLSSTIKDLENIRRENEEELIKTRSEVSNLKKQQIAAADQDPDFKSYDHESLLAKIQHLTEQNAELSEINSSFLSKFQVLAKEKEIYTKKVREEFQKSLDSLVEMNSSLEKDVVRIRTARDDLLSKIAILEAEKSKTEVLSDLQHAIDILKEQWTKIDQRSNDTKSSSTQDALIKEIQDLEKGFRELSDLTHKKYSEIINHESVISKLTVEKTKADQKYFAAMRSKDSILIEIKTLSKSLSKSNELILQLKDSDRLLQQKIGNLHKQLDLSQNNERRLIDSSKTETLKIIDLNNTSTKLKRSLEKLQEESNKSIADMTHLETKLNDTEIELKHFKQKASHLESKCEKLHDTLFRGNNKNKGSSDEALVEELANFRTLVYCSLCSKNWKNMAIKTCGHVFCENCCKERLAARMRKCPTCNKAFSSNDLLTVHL

[2] = target: T2, Bre1-LR V382N (budding yeast, UniProt Q07457 227-700, V382N)
T2 construct: source: E. coli BL21 Rosetta (DE3), purified (Ni-NTA, heparin, gel filtration)
T2 sequence (looked up): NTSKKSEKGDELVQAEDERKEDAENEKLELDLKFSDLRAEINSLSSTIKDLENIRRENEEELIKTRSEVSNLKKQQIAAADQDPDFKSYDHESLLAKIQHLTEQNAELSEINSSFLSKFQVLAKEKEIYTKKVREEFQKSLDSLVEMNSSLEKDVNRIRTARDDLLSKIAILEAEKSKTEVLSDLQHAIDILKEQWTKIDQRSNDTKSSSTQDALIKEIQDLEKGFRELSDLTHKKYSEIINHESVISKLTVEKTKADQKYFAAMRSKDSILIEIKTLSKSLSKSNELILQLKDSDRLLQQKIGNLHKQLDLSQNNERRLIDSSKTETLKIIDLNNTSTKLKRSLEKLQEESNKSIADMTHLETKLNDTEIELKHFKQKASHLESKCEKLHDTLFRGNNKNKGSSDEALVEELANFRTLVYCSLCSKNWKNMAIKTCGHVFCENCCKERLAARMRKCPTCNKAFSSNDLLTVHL

[3] = target: T3, Bre1-LR K352E (budding yeast, UniProt Q07457 227-700, K352E)
T3 construct: source: E. coli BL21 Rosetta (DE3), purified (Ni-NTA, heparin, gel filtration)
T3 sequence (looked up): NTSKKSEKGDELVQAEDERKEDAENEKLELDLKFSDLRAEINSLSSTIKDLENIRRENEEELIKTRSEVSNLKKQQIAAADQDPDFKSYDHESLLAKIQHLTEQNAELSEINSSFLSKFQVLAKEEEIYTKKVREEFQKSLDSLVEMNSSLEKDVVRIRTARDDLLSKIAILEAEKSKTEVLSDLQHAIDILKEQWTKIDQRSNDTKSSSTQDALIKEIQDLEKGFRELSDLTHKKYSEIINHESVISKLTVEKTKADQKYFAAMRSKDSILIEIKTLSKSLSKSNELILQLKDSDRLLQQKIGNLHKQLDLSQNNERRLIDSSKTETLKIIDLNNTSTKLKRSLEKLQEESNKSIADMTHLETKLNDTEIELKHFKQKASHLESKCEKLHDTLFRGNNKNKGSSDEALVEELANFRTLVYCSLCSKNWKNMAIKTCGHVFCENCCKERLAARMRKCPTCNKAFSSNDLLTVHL

[4] = target: T4, Bre1-LR K379E (budding yeast, UniProt Q07457 227-700, K379E)
T4 construct: source: E. coli BL21 Rosetta (DE3), purified (Ni-NTA, heparin, gel filtration)
T4 sequence (looked up): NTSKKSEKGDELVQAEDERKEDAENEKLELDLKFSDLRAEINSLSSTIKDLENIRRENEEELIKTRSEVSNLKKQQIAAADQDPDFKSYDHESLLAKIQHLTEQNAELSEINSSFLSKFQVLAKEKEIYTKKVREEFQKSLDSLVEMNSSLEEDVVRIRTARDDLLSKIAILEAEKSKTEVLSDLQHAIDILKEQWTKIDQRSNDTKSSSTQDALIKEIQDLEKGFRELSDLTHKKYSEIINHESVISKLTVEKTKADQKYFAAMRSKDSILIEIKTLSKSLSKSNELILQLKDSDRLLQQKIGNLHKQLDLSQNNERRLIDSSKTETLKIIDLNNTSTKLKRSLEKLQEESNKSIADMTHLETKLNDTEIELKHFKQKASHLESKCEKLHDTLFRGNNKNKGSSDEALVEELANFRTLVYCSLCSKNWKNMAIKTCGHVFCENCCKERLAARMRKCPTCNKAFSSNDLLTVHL

Kd [1]: 17.5 nM
Kd [2]: 63 nM
Kd [3]: 76.6 nM
Kd [4]: 41.3 nM
B1: Lge1-CT (Lge1 residues 261–332), intein-chitin binding domain (CBD) tag construct (domain or fragment, budding yeast, UniProt Q02796 261-332, looked up)
chain: KNVKKTNNTESECEKAREVFKESDSIDSALEELNLKINSNELELRLLNNQCDKHALNIQLTQEKLDSLLLMQ
notes: Lge1, budding yeast, residues 261-332; residues 268–331 resolved in the electron density; the intein-CBD tag is named on the protein in the pull-down; also called intein-CBD-fused Lge1-CT; intein-CBD-tagged Lge1-CT; source: E. coli BL21 Rosetta (DE3): cleared cell extract on chitin resin (pull-down); purified (chitin, heparin, gel filtration) for ITC and SPR; co-purified with Bre1-LR for the …
